Experiment: yeast display, Sf9 membrane polyspecificity reagent, FACS + sequencing; frameworks hold sequencing errors
Method in brief: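 Polyreactivity labels are assigned by the sorting gate from which each nanobody was recovered. The gates were low and high (top ~1%), set on anti-HA fluorescence for expression and streptavidin fluorescence for reagent binding. Before sorting, galactose-induced (36–48 hours) yeast display cells were stained for 1 hour at 4 °C with 10% biotinylated, detergent-solubilized Sf9 membrane reagent.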

| Sequence | polyreactivity (PSR sort gate) |
| --- | --- |
| QVQLVESGGGLVQAGGSLRLSCAASGRTFVVYAMGWYRQAPGKERELVAVISFTRDSTFYADSVKGRFTISRDNAKNTVYLQMNSLKPEDTAVYYCAADFRRVFSKYSYYLYFEFDYWGQGTQVTVSS | low polyreactivity |
| QVQLVESGGGLVQAGGSLRLSCAASGSIFSTYTMGWYRQAPGKERELVAAITRSGGSTYYADSVKGRFTISRDNAKNTVYLQMNSLKPEDTAVYYCAARWKFPSSFYYWGQGTQVTVSS | high polyreactivity |
| QVQLVESGGGLVQAGGSLRLSCAASGFTFRRYAMGWYRQAPGKERELVAAITRTGAGTYYADSVKGRFTISRDNAKNTVYLQMNSLKPEDTAVYYCAAAFYYASAMDYWGQGTQVTVSS | high polyreactivity |
| QVQLVESGGGLVQAGGSLRLSCAASGRTFYDNVMGWYRQAPGKERELVAAISSGGSTNYADSVKGRFTISRDNAKNTVYLQMNSLIPEDTAVYYCATNGGGGWAYEYWGQGTQVTVSS | low polyreactivity |
| QVQLVESGGGLVQAGGSLRLSCAASGRICGSYAMGWYRQAPGKERELVADISWRGTSTYYADSVKGRFTISRDIAKNTVYLQMNSLKPEDTAVYYCAARGLWPYDYWGQGTQVTVSS | low polyreactivity |
| QVQLVKSGGGLVQAGGSLRLSCAASGSTFNKYTMGWYRQAPWKERELVAAITSGDSTYYADSVKGRFTISRDNAKNTVYLQMNSLKPEDTAVYYCAKSLRAYRHVIYGKALYSWGQGTQVTVSS | low polyreactivity |
| QVQLVESGGVLVQAGGSLRLSCAASGLTFQPYVMGWYRHAPGKERELVAAISVRTTRTYYADSVKGRFTISRDNAKNTVYLQMNSLKPEDTAVYYCATRGDYWSPYEDDDYWGQGTQLTVSS | low polyreactivity |
| QVQLVESGGGLVQAGGSLRLSCAASGSIFTNNAMGWYRQAPGKETELVAAISWSGGSTYYADSVKGRFTISRDNAKNTVYLQMNSLKPEDTAVYYCAARRWGGPRYKYNYWGQGTQVTVSS | high polyreactivity |
| QVQLVESGGGLVQAGGSLRLSCAASGIIFYWNAMGWYRQAPGQEREFDASISGSGGSTYADSVKGRFTISRDNAMNTVYFQMKSLKPEDTAVYYCAVLYWRPGYDYLGQGTQVTVSS | high polyreactivity |
| QVQLVESGGGIVQAGRSLRLRCAASGFIFRYYTMGWYRQAPGKEREFVAAITSRGGSTYYSDSVKGRFTISRDNAKNTVYLQMNSLKPEDTAVYDCATTRWGYEYWGQGSQVTVSS | high polyreactivity |
| QVQLVESGGGLVQAGGSLRLSCAASGRTLFWNAMGWYRQAPGKEREFVAAIRWRGGSTYYADSVKGRFTISRDNAKNTVYLQMNSLKPEDTAVYYCGAAVRPYKRQDDYWGQGTQVSVSS | high polyreactivity |
| QDQLVESGGGLVQAGGSLRLSCHSSGFIFTDYAMGWYRQAPGKERELVARITSGGASTYYADSVKGRFTISRDIAKNTVYLQMNSLKPEDTAVYYCAAQARCWGYVYWGQGTQVTVSS | low polyreactivity |
| QVQLVESGGGLVQAGGSLRLSCAAYGRIFDNNAMGWYRQAPGKERELVAAIDWRGGSTDYADSVKGRFTISRDNAKNTVYLQMNSLKPEDTAVYYCVAGHVPYWHGNSYDYWGQGTQVTVSS | low polyreactivity |
| QVQLVESGGGLVQAGGSLRLSCAASGRTFDGNTMGWYRQAPGKERELVAAITKRGGSTYYADSVKGRFTISRDNAKNTVYLQMNSLKPEDTAVYYCNAVWRNWYARVDEYDYWGQGTQVTVSS | high polyreactivity |
| QVQLVESGGGLVQAGGSLRITCAASGSTFGPYVMGWYRQAPGKEMELVAAISLSGASTYYADSVKGRFTISRDNAKNNVYLQMISLKPEETAVYYCAAQTPYGMYYWGQGTQVTVSS | low polyreactivity |
| QVQLVESGGGLVQAGGSLRLSCAASGIIFYFYAMGWDSQAPGKERELVAAISGTGGRTYYADSVKGRFTISRDNAKNTVYLQMNSLKPEDTAVYYCAADRGGLRWFWQVLYDYWGQGTQVTESS | low polyreactivity |
| QVQLVESGGGLVQAGGSLRLSCAPSGRIFWYNAMGWYRQAPGKERELVAGISSSGTRTYYADSVKGRFTISRDNAKNTVYLQMNSLKPEDTAVYYCAAGYDLSYYWYDYWGQGTQVTVSS | low polyreactivity |
| QVQLVESGGGLVQAGGSLRLSCAASGFTIFYYAMGWYRQAPGKERELVASISWSGGSTYYADSVMGRFTISRENAKNSVYLQMNSLKPEDTAVYYCAADVPFGGDYWGQGTQVTVSS | low polyreactivity |
| QDQLVESVGGLDQAGGSLRLSCAASGRIFVHNAMGWYRQAPGKEREFVAAISLRGGSTYYADSVKGRFTISRDNAKNTVYLQMNSLKTEDTAVYYCAAVPAHFYGFDYCGQGTQVTVSS | low polyreactivity |
| QVQLVESGGGLVQAGGSLRLSCAASGSIFSGYTMGWYRQAPGKERELVAAITQRGTRTYYADSVKGRFTISRDNAKNTVYLQMNSLKPEDTAVYYCAADSVVVGSPGNDYWGQGTQVTVSS | high polyreactivity |
| QVQLVESGGGLVQAGGSLRLSCAASGRIFITYAMGWYRPAPGTERELVAAIDSRGGSTYYADSVKGRFTISRDNAKNTDYLQMNSLKPEDTSVNYCAAEFYYIWLYEYWGQGTQVTVSS | high polyreactivity |
| QVQLQESGGGLVQAGGSLRLSCAASGTISPLPAMGWYRQAPGKEREFVAGIDTGAITNYADSVKGRFTISRDNAKNTVYLQMNSLKPEDTPVYYCAATFYYSGHDDYWGQGTQVPVSS | low polyreactivity |
| QVQLVESGGGLVQAGGSLRLSCAASGSTFFINAMGWYRQEHGTEREFVASISYSGGSTYYADSVKGRFTISRDNAKNTVYLQMNSLKPEDTAVYYCNADVRVFLHYSKYNYWGQGTQVTVSS | low polyreactivity |
| QVQLVESGGGLVQAGGSLRLSCAASVRIFYGYTMGWYRQAPGKERELVASIDYSTGRTYYADSVKGRFTISRDNAKNTVYLLMNSLKPEDTAVYYCNADPNYSFLRYDYWGQGTQVTVSS | high polyreactivity |
| QVQLVESGGGLVQAGGSLRLSCAASGRIFWTYAMGWYRQAPGKERELVASITWSGGTTYYADSVKGRFTISRDNAKNTVYLQMNSLKTEDTAVYYCNTDVLAPYDSGYWGQGTQVTVSS | low polyreactivity |
| QVQLVESGGGLVQAGGSLRLSCAASGSIFVAYDMGCYRQAPGKESALVAAIDSVGRTNYADSVKGRFTISRDNAKNTVYLQMNSLQPEDTAVYYCNADQYYSFYDPDDYWGQGTQVTVSS | low polyreactivity |
| QVQLVESGGGLVQAGGSLRLSCAASGGTFDPSAMGWYRQAPGKERDFVAAISWSGGRTYYADSVKGRFTISRDNAKNTVYLQMNSLKPEDTAVYYCAATSVGYAQRRYGYWGQGTQVTVSS | high polyreactivity |
| QVQLVESCGGLVQAGGSLRLTCAASGSTFNWYTMGWYRQAPGKDRELVAAMSRGTGSTYYADSVKGRFTMSRDNANNRVYVQMNSLKPEDTAVYSCAKQGYRYSSFLYDYWGQGTQVTVSS | low polyreactivity |
| QVQLQESGGSLVQAGGSLRLSCAASGNILVLPHGLVSPGAERELVATITGGSITYYADSVKGRFTISRDNAKNTVYLQMNSLKPGDTAVYYCAVINIYHRPHPYWGQGTLVTVSS | high polyreactivity |
| QVHLVESGGGLVQAGGSLRLSCSASGSIFGKYAMGWYRQAPGKERELVAAISWSGTSTYYADSVKGRFTISRDNAKNTVYLQMNSLKPEDTAVYYCAAESRVYGYNYWGQGTQVTVSS | high polyreactivity |

Source: the nanobody polyreactivity screen of Harvey et al. (2022)
